Measurements from patent US20220010021A1 (Sanofi, published 2022).

T1: human beta-Klotho (KLB) (human, UniProt Q86Z14 53-997)
T1 construct: also called human KLB
T1 sequence (looked up): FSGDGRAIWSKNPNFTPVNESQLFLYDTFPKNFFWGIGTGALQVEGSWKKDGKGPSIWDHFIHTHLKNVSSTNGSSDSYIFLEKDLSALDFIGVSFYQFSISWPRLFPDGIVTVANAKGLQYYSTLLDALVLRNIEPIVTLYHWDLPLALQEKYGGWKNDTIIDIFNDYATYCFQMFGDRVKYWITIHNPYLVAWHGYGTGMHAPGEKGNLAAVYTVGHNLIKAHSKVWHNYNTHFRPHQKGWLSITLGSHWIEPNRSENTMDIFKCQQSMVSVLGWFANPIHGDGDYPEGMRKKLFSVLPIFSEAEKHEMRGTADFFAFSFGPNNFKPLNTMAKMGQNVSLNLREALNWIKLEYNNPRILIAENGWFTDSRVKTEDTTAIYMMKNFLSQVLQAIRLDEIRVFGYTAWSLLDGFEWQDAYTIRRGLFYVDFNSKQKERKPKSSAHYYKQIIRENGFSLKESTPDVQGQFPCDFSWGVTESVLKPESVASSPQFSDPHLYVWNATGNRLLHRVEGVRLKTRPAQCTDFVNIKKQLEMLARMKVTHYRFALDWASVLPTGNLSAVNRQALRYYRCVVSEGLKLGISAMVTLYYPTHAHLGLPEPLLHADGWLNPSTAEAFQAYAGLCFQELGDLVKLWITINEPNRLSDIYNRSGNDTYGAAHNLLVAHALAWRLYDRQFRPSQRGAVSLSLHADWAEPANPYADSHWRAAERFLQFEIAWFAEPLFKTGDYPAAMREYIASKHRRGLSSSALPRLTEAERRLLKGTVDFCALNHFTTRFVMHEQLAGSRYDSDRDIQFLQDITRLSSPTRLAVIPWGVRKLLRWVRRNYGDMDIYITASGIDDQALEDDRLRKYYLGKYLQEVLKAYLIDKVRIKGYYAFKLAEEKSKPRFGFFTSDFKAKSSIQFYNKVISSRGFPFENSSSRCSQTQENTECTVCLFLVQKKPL


Assays:
[1] = target: T1, human beta-Klotho (KLB); assay: BLI off-rate screen (Octet), Ab captured via Fc;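 further: antibody supernatants applied at 25 µg/mL, dissociation monitored over 1800 s in D-PBS with 0.1% BSA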
[2] = target: human FGFR1c/KLB cell surface receptor complex on iLite FGF21 reporter cells (human, UniProt P11362 22-822; Q86Z14 1-1044); assay: cell-based or functional assay; on Mean E max (%): reference of the scale not given here
Sequence of human FGFR1c/KLB cell surface receptor complex on iLite FGF21 reporter cells (P11362 22-822, chain 1 of 2): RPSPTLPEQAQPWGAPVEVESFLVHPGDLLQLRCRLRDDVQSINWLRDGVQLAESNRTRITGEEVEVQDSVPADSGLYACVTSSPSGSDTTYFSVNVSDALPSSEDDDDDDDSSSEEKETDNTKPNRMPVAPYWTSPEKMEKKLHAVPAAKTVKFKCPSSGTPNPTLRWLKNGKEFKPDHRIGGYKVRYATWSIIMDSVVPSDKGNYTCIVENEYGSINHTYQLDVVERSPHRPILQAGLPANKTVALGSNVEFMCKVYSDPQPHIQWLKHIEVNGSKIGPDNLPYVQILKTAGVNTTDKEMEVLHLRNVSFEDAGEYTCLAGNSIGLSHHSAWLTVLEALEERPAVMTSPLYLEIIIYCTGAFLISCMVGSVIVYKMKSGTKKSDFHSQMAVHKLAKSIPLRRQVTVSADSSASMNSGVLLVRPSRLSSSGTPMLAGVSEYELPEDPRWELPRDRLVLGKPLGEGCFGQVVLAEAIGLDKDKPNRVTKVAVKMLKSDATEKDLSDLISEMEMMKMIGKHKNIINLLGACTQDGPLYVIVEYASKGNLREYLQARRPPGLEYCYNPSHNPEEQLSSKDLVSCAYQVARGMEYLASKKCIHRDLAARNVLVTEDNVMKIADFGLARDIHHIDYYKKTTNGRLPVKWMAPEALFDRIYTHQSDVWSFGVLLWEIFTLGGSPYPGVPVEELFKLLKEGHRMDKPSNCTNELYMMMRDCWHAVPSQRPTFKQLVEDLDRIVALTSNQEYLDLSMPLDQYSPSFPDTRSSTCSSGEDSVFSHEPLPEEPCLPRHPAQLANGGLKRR
Sequence of human FGFR1c/KLB cell surface receptor complex on iLite FGF21 reporter cells (Q86Z14 whole entry, chain 2 of 2): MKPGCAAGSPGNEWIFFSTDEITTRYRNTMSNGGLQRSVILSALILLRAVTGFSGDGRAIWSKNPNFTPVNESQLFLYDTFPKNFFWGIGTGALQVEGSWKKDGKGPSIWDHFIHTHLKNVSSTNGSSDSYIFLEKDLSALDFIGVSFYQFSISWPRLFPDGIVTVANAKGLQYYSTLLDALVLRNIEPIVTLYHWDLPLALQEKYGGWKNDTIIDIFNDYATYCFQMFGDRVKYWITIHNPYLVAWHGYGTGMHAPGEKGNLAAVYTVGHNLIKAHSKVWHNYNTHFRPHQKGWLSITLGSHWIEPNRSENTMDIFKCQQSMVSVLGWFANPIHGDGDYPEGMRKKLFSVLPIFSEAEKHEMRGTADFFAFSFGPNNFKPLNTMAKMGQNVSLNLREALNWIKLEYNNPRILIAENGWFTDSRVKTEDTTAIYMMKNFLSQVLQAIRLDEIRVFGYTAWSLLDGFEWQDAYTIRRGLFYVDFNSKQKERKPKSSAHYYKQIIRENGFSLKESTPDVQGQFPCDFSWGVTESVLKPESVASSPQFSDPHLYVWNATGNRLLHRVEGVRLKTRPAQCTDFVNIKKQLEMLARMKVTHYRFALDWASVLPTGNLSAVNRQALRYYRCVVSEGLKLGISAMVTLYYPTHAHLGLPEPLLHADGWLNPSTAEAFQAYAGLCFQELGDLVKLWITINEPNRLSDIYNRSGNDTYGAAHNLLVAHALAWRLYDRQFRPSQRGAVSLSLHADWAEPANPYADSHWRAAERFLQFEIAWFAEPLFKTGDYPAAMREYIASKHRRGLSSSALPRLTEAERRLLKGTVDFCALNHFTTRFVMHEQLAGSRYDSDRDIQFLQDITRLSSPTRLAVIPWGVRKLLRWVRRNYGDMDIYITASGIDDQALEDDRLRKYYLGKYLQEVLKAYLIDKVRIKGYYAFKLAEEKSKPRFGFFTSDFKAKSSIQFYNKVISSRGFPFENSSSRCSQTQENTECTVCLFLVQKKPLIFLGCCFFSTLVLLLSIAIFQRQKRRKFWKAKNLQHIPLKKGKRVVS

Binder	koff [1] [s⁻¹]	Mean E max (%) [2] [%]	Mean EC50 [2] [nM]
16H7 variant, light chain N25S (antibody, human IgG4 S228P, lambda, V domains shown, IgG4 backbone) VH: not shown VL: SYVLTQPPSVSVAPGQTARITCGGSNIGSESVHWYQQKPGQAPVLVVYDDSDRPSGIPERFSGSNSGNTATLTISRVEAGDEADYYCQVWDGNSDHVVFGGGTKLTVLG	4.4e-05	98	0.131
16H7 variant, light chain N26E (antibody, human IgG4 S228P, lambda, V domains shown, IgG4 backbone) VH: not shown VL: SYVLTQPPSVSVAPGQTARITCGGNEIGSESVHWYQQKPGQAPVLVVYDDSDRPSGIPERFSGSNSGNTATLTISRVEAGDEADYYCQVWDGNSDHVVFGGGTKLTVLG	7.2e-05	106	0.106
16H7 variant, light chain N26R (antibody, human IgG4 S228P, lambda, V domains shown, IgG4 backbone) VH: not shown VL: SYVLTQPPSVSVAPGQTARITCGGNRIGSESVHWYQQKPGQAPVLVVYDDSDRPSGIPERFSGSNSGNTATLTISRVEAGDEADYYCQVWDGNSDHVVFGGGTKLTVLG	2.5e-05	110	0.205
16H7 variant, light chain N26C (antibody, IgG4, V domains shown, IgG4 backbone; copies: 2 + 2) VH: not shown VL: SYVLTQPPSVSVAPGQTARITCGGNCIGSESVHWYQQKPGQAPVLVVYDDSDRPSGIPERFSGSNSGNTATLTISRVEAGDEADYYCQVWDGNSDHVVFGGGTKLTVLG	1e-07	103	0.146
16H7 variant, light chain N25T (antibody, human IgG4 S228P, lambda, V domains shown, IgG4 backbone) VH: not shown VL: SYVLTQPPSVSVAPGQTARITCGGTNIGSESVHWYQQKPGQAPVLVVYDDSDRPSGIPERFSGSNSGNTATLTISRVEAGDEADYYCQVWDGNSDHVVFGGGTKLTVLG	2.3e-05	111	0.117
16H7 variant, light chain N26I (antibody, IgG4, V domains shown, IgG4 backbone; copies: 2 + 2) VH: not shown VL: SYVLTQPPSVSVAPGQTARITCGGNIIGSESVHWYQQKPGQAPVLVVYDDSDRPSGIPERFSGSNSGNTATLTISRVEAGDEADYYCQVWDGNSDHVVFGGGTKLTVLG	6.3e-05	110	0.113
16H7 variant, light chain N26F (antibody, human IgG4 S228P, lambda, V domains shown, IgG4 backbone) VH: not shown VL: SYVLTQPPSVSVAPGQTARITCGGNFIGSESVHWYQQKPGQAPVLVVYDDSDRPSGIPERFSGSNSGNTATLTISRVEAGDEADYYCQVWDGNSDHVVFGGGTKLTVLG	5.4e-05	95	0.158
16H7 variant, light chain N26L (antibody, human IgG4 S228P, lambda, V domains shown, IgG4 backbone) VH: not shown VL: SYVLTQPPSVSVAPGQTARITCGGNLIGSESVHWYQQKPGQAPVLVVYDDSDRPSGIPERFSGSNSGNTATLTISRVEAGDEADYYCQVWDGNSDHVVFGGGTKLTVLG	4.4e-05	103	0.131
16H7 variant, light chain N25W (antibody, human IgG4 S228P, lambda, V domains shown, IgG4 backbone) VH: not shown VL: SYVLTQPPSVSVAPGQTARITCGGWNIGSESVHWYQQKPGQAPVLVVYDDSDRPSGIPERFSGSNSGNTATLTISRVEAGDEADYYCQVWDGNSDHVVFGGGTKLTVLG	1e-07	99	0.099
16H7 variant, light chain N25V (antibody, human IgG4 S228P, lambda, V domains shown, IgG4 backbone) VH: not shown VL: SYVLTQPPSVSVAPGQTARITCGGVNIGSESVHWYQQKPGQAPVLVVYDDSDRPSGIPERFSGSNSGNTATLTISRVEAGDEADYYCQVWDGNSDHVVFGGGTKLTVLG	3.2e-05	106	0.121
16H7 variant, light chain N26H (antibody, human IgG4 S228P, lambda, V domains shown, IgG4 backbone) VH: not shown VL: SYVLTQPPSVSVAPGQTARITCGGNHIGSESVHWYQQKPGQAPVLVVYDDSDRPSGIPERFSGSNSGNTATLTISRVEAGDEADYYCQVWDGNSDHVVFGGGTKLTVLG	3.5e-05	112	0.138
16H7 variant, light chain N26D (antibody, IgG4, V domains shown, IgG4 backbone; copies: 2 + 2) VH: not shown VL: SYVLTQPPSVSVAPGQTARITCGGNDIGSESVHWYQQKPGQAPVLVVYDDSDRPSGIPERFSGSNSGNTATLTISRVEAGDEADYYCQVWDGNSDHVVFGGGTKLTVLG	5.6e-05	101	0.123
16H7 variant, light chain N26G (antibody, human IgG4 S228P, lambda, V domains shown, IgG4 backbone) VH: not shown VL: SYVLTQPPSVSVAPGQTARITCGGNGIGSESVHWYQQKPGQAPVLVVYDDSDRPSGIPERFSGSNSGNTATLTISRVEAGDEADYYCQVWDGNSDHVVFGGGTKLTVLG	3.7e-05	94	0.097
16H7 variant, light chain N26Q (antibody, IgG4, V domains shown, IgG4 backbone; copies: 2 + 2) VH: not shown VL: SYVLTQPPSVSVAPGQTARITCGGNQIGSESVHWYQQKPGQAPVLVVYDDSDRPSGIPERFSGSNSGNTATLTISRVEAGDEADYYCQVWDGNSDHVVFGGGTKLTVLG	1e-07	109	0.119
16H7 variant, light chain N26A (antibody, human IgG4 S228P, lambda, V domains shown, IgG4 backbone) VH: not shown VL: SYVLTQPPSVSVAPGQTARITCGGNAIGSESVHWYQQKPGQAPVLVVYDDSDRPSGIPERFSGSNSGNTATLTISRVEAGDEADYYCQVWDGNSDHVVFGGGTKLTVLG	4.6e-06	98	0.106
16H7 variant, light chain N26P (antibody, human IgG4 S228P, lambda, V domains shown, IgG4 backbone) VH: not shown VL: SYVLTQPPSVSVAPGQTARITCGGNPIGSESVHWYQQKPGQAPVLVVYDDSDRPSGIPERFSGSNSGNTATLTISRVEAGDEADYYCQVWDGNSDHVVFGGGTKLTVLG	5.1e-05	100	0.099
16H7 variant, light chain N26M (antibody, human IgG4 S228P, lambda, V domains shown, IgG4 backbone) VH: not shown VL: SYVLTQPPSVSVAPGQTARITCGGNMIGSESVHWYQQKPGQAPVLVVYDDSDRPSGIPERFSGSNSGNTATLTISRVEAGDEADYYCQVWDGNSDHVVFGGGTKLTVLG	2.2e-05	111	0.153
16H7 variant, light chain N25Y (antibody, human IgG4 S228P, lambda, V domains shown, IgG4 backbone) VH: not shown VL: SYVLTQPPSVSVAPGQTARITCGGYNIGSESVHWYQQKPGQAPVLVVYDDSDRPSGIPERFSGSNSGNTATLTISRVEAGDEADYYCQVWDGNSDHVVFGGGTKLTVLG	3.1e-05	104	0.099
16H7 variant, light chain N26K (antibody, human IgG4 S228P, lambda, V domains shown, IgG4 backbone) VH: not shown VL: SYVLTQPPSVSVAPGQTARITCGGNKIGSESVHWYQQKPGQAPVLVVYDDSDRPSGIPERFSGSNSGNTATLTISRVEAGDEADYYCQVWDGNSDHVVFGGGTKLTVLG	1e-07	104	0.143
